For ten molecules, Ka results are on record in patent US20260250425A1 (UNIVERSITY OF CHICAGO, published 2026).

Read-outs that look alike come from different tables or passages of the source.

Test [1] has as its target T1, human C1q (human, UniProt P02745 23-245; P02746 28-253; P02747 29-245).
T1 construct: Purified human C1q (CompTech); also called hc1q; hC1q
The test can be described thus: ELISA, human C1q-coated plate. (In general: In an ELISA, binding on a coated surface is turned into a signal by an enzyme label.)

For test [2], the target named is T1, human C1q. The test can be described thus: ELISA, human C1q-coated plate. The source holds these as a separate data set.
Test [3] deals with T2, human FcγRIA (human, UniProt P12314 16-288, limits assumed).
T2 construct: Recombinant His-tagged protein
T2 sequence (P12314 16-288 limits assumed): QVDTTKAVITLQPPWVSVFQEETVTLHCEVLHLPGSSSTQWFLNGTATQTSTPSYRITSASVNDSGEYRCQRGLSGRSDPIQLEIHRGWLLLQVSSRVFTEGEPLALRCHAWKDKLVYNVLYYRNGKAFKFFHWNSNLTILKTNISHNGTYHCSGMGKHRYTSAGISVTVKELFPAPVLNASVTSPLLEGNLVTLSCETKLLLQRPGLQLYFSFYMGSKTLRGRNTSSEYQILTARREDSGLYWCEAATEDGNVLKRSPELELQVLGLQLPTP
In words: ELISA, His-tagged FcγR captured by anti-His antibody.

Test [4] concerns the target T3, human FcγRIIA (R131) (human, UniProt P12318 34-218, limits assumed).
T3 construct: Recombinant His-tagged protein
T3 sequence (looked up): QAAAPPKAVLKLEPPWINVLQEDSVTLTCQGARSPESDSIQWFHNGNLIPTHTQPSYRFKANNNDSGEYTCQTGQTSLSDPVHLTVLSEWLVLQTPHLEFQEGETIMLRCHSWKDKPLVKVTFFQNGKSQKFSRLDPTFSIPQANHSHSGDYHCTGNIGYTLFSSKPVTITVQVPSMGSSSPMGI
The description is as above.

Test [5] addresses T4, human FcγRIIA (H131) (human, UniProt P12318 34-218, limits assumed).
T4 construct: Recombinant His-tagged protein
T4 sequence (looked up): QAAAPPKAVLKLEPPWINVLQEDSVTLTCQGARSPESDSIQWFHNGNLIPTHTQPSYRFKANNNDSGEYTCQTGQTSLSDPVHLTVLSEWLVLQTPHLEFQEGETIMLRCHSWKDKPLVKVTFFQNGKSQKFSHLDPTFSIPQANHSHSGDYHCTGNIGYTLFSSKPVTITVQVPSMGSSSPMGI
The description is as above.

In test [6] the target is T5, human FcγRIIB (human, UniProt P31994 43-217, limits assumed).
T5 construct: Recombinant His-tagged protein; also called FcγRIIB (human)
T5 sequence (looked up): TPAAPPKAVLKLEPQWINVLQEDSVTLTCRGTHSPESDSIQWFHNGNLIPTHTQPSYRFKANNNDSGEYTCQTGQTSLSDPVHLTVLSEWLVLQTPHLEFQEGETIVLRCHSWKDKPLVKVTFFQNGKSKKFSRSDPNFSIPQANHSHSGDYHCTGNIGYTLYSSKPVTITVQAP
Described as above.

Test [7] addresses T6, human FcγRIIIA (V158) (human, UniProt P08637 17-208).
T6 construct: Recombinant His-tagged protein
Described as above.

The target in test [8] is T7, human FcγRIIIA (F158) (human, UniProt P08637 17-208).
T7 construct: Recombinant His-tagged protein
T7 sequence (P08637 17-208 limits assumed): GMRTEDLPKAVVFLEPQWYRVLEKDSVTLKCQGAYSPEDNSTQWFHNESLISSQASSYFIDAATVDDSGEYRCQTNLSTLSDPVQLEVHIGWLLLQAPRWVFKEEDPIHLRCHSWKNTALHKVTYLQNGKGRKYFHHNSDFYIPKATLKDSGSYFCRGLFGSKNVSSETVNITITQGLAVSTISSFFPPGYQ
The test is described as above.

The target in test [9] is T8, mouse FcγRI (mouse, UniProt P26151 25-297).
T8 construct: Recombinant His-tagged protein
T8 sequence (looked up): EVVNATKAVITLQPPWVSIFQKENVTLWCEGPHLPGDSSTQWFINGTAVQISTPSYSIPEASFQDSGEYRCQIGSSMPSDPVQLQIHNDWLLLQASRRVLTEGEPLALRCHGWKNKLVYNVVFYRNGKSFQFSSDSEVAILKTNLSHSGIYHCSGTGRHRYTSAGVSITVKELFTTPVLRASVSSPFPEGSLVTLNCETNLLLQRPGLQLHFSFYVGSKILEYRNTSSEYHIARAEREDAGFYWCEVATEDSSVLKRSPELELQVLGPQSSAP
Described as above.

Test [10] has as its target T9, mouse FcγRIIB (mouse, UniProt P08101 30-210, limits assumed).
T9 construct: Recombinant His-tagged protein
T9 sequence (looked up): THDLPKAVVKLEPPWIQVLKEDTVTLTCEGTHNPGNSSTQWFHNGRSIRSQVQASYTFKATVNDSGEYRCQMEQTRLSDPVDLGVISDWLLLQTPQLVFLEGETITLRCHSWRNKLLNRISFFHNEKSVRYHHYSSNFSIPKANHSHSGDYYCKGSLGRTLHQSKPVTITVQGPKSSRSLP
The description is as above.

The target in test [11] is T10, mouse FcγRIII (mouse, UniProt P08508 31-215).
T10 construct: Recombinant His-tagged protein
T10 sequence (looked up): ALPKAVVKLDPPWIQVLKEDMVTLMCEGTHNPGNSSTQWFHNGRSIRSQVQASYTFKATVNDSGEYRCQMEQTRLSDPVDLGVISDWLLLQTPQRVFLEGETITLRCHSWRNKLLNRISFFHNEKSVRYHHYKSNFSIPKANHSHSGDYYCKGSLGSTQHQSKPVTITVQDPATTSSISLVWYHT
The description is as above.

Test [12] concerns the target T11, mouse FcγRIV (mouse, UniProt A0A0B4J1G0 21-203).
T11 construct: Recombinant His-tagged protein
T11 sequence: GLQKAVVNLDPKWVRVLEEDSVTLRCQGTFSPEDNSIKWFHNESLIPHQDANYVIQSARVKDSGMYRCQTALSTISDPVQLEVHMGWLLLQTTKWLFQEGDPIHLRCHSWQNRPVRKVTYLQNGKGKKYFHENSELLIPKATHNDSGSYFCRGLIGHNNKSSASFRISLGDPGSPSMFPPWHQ
The test is described as above.

Test [13] has as its target T12, mouse C1q (mouse, UniProt P98086 23-245; P14106 26-253; Q02105 30-246).
T12 construct: Plates were coated with BALB/c mouse serum as the source of mouse C1q; also called mc1q
In words: ELISA, plate coated with BALB/c mouse serum (mouse C1q).

T1 sequence (P02745 23-245 limits assumed, chain 1 of 3): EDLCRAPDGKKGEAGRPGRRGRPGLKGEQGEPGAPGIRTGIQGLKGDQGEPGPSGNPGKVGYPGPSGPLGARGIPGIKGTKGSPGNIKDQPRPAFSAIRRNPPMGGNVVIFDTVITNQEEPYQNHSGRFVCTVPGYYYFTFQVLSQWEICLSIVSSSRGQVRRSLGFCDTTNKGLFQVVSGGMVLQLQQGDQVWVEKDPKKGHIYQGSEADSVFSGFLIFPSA
T1 sequence (P02746 28-253 limits assumed, chain 2 of 3): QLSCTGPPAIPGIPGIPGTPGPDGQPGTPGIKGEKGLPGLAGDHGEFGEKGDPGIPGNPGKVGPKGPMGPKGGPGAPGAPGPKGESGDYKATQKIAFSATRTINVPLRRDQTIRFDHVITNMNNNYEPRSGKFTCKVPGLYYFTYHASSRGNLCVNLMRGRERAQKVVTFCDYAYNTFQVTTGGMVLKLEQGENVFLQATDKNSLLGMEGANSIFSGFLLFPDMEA
T1 sequence (P02747 29-245 limits assumed, chain 3 of 3): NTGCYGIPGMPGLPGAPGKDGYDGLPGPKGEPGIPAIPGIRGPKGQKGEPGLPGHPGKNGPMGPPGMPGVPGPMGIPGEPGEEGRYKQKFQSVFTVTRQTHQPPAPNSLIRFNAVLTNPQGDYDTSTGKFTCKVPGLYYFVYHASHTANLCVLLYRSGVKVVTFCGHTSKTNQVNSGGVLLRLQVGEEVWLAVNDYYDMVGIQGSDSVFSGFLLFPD
T12 sequence (P98086 23-245 limits assumed, chain 1 of 3): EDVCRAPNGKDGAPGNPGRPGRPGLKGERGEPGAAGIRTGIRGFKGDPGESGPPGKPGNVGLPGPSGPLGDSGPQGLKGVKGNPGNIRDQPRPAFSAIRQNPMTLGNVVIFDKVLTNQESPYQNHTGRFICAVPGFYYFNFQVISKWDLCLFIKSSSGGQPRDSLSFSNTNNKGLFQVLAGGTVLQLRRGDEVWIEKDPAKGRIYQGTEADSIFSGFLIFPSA
T12 sequence (P14106 26-253 limits assumed, chain 2 of 3): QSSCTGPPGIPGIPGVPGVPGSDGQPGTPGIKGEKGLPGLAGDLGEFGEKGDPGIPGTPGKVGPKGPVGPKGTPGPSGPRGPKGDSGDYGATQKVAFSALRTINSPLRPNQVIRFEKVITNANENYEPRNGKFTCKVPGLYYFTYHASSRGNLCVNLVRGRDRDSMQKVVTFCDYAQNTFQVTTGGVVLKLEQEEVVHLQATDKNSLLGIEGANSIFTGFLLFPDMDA
T12 sequence (Q02105 30-246 limits assumed, chain 3 of 3): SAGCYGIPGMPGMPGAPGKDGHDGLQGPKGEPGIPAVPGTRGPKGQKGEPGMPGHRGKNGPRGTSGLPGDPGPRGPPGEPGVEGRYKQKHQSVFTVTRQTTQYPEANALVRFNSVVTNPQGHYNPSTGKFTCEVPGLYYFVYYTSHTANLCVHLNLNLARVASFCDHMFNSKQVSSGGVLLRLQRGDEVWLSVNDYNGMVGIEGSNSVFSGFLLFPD
T6 sequence (P08637 17-208 F176V limits assumed): as the sequence (P08637 17-208 limits assumed) above, with F160V counted along it

B1: 3F6-hIgG1HEK-deGal (antibody)
heavy: not shown
light: DIVLTQSPDSLAVSLGERATINCRASESVEYSGASLMQWYQHKPGQPPKLLIYAASNRESGVPDRFSGSGSGTDFTLTISPVQAEDVAMYFCQQSRKVPSTFGGGTKLEIKRTVAAPSVFIFPPSDEQLKSGTASVVCLLNNFYPREAKVQWKVDNALQSGNSQESVTEQDSKDSTYSLSSTLTLSKADYEKHKVYACEVTHQGLSSPVTKSFNRGEC
modifications: Asn297 N-glycans de-galactosylated with β1-4-galactosidase
notes: See m5
On to B1, for which the Ka in test [1] is 4e+06 M⁻¹.

B2: 3F6-hIgG1HEK-G0F (antibody)
heavy: not shown
light: DIVLTQSPDSLAVSLGERATINCRASESVEYSGASLMQWYQHKPGQPPKLLIYAASNRESGVPDRFSGSGSGTDFTLTISPVQAEDVAMYFCQQSRKVPSTFGGGTKLEIKRTVAAPSVFIFPPSDEQLKSGTASVVCLLNNFYPREAKVQWKVDNALQSGNSQESVTEQDSKDSTYSLSSTLTLSKADYEKHKVYACEVTHQGLSSPVTKSFNRGEC
modifications: Asn297 N-glycan remodelled chemoenzymatically to homogeneous G0F
notes: See m5; also called 3F6-hIgGHEK-G0F
Regarding B2, the Ka in [1] came to 6.94e+06 M⁻¹.

B3: 3F6-hIgG1HEK-G1F (antibody)
heavy: not shown
light: DIVLTQSPDSLAVSLGERATINCRASESVEYSGASLMQWYQHKPGQPPKLLIYAASNRESGVPDRFSGSGSGTDFTLTISPVQAEDVAMYFCQQSRKVPSTFGGGTKLEIKRTVAAPSVFIFPPSDEQLKSGTASVVCLLNNFYPREAKVQWKVDNALQSGNSQESVTEQDSKDSTYSLSSTLTLSKADYEKHKVYACEVTHQGLSSPVTKSFNRGEC
modifications: Asn297 N-glycan remodelled chemoenzymatically to homogeneous G1F
notes: See m5; also called 3F6-hIgGHEK-G1F
Molecule B3 had a Ka in test [1] of 3.83e+07 M⁻¹.

B4: 3F6-hIgG1CHO-G2F (antibody)
heavy: not shown
light: DIVLTQSPDSLAVSLGERATINCRASESVEYSGASLMQWYQHKPGQPPKLLIYAASNRESGVPDRFSGSGSGTDFTLTISPVQAEDVAMYFCQQSRKVPSTFGGGTKLEIKRTVAAPSVFIFPPSDEQLKSGTASVVCLLNNFYPREAKVQWKVDNALQSGNSQESVTEQDSKDSTYSLSSTLTLSKADYEKHKVYACEVTHQGLSSPVTKSFNRGEC
modifications: Asn297 N-glycan remodelled chemoenzymatically to homogeneous G2F
notes: Endo-S2 deglycosylation and EndoS2-D184M transfer of G2F glycan; also called 3F6-hIgGCHO-G2F
B4: the Ka in test [1] was 5.11e+07 M⁻¹.

B5: 3F6-hIgG1HEK-afu (antibody)
heavy: not shown
light: DIVLTQSPDSLAVSLGERATINCRASESVEYSGASLMQWYQHKPGQPPKLLIYAASNRESGVPDRFSGSGSGTDFTLTISPVQAEDVAMYFCQQSRKVPSTFGGGTKLEIKRTVAAPSVFIFPPSDEQLKSGTASVVCLLNNFYPREAKVQWKVDNALQSGNSQESVTEQDSKDSTYSLSSTLTLSKADYEKHKVYACEVTHQGLSSPVTKSFNRGEC
modifications: Asn297 N-glycans low in fucose and galactose (HEK-293F cells grown with kifunensine)
notes: See m5; also called afucosylated 3F6-hIgG1HEK
As for B5, the Ka in test [2] is 5.97e+06 M⁻¹; in [3], 5.83e+08 M⁻¹; in [4], 1.82e+06 M⁻¹; in test [5], 1.51e+06 M⁻¹; in test [6], 179000 M⁻¹; in test [7], 5.63e+07 M⁻¹. In addition, the Ka stood at 9.2e+06 M⁻¹ in test [8]; 9.2e+07 M⁻¹ in test [9]; 1.62e+06 M⁻¹ in [10]; 2.3e+06 M⁻¹ in test [11]; 3.19e+08 M⁻¹ in test [12]; 2.79e+06 M⁻¹ in test [13].

B6: 3F6-hIgG1CHO-Gal (antibody)
heavy: not shown
light: DIVLTQSPDSLAVSLGERATINCRASESVEYSGASLMQWYQHKPGQPPKLLIYAASNRESGVPDRFSGSGSGTDFTLTISPVQAEDVAMYFCQQSRKVPSTFGGGTKLEIKRTVAAPSVFIFPPSDEQLKSGTASVVCLLNNFYPREAKVQWKVDNALQSGNSQESVTEQDSKDSTYSLSSTLTLSKADYEKHKVYACEVTHQGLSSPVTKSFNRGEC
modifications: Asn297 N-glycans enzymatically galactosylated (β1,4GalT)
notes: 3F6-hIgG1CHO after enzymatic galactosylation; also called 3F6-IgG1CHO-Gal
B6 returned a Ka in test [1] of 2.17e+07 M⁻¹.

B7: 3F6-hIgG1HEK-G2F (antibody)
heavy: not shown
light: DIVLTQSPDSLAVSLGERATINCRASESVEYSGASLMQWYQHKPGQPPKLLIYAASNRESGVPDRFSGSGSGTDFTLTISPVQAEDVAMYFCQQSRKVPSTFGGGTKLEIKRTVAAPSVFIFPPSDEQLKSGTASVVCLLNNFYPREAKVQWKVDNALQSGNSQESVTEQDSKDSTYSLSSTLTLSKADYEKHKVYACEVTHQGLSSPVTKSFNRGEC
modifications: Asn297 N-glycan remodelled chemoenzymatically to homogeneous G2F
notes: See m5; also called 3F6-hIgGHEK-G2F
Take B7: in [1], the Ka came to 5.5e+07 M⁻¹.

B8: 3F6-hIgG1HEK-deSia (antibody)
heavy: not shown
light: DIVLTQSPDSLAVSLGERATINCRASESVEYSGASLMQWYQHKPGQPPKLLIYAASNRESGVPDRFSGSGSGTDFTLTISPVQAEDVAMYFCQQSRKVPSTFGGGTKLEIKRTVAAPSVFIFPPSDEQLKSGTASVVCLLNNFYPREAKVQWKVDNALQSGNSQESVTEQDSKDSTYSLSSTLTLSKADYEKHKVYACEVTHQGLSSPVTKSFNRGEC
modifications: Asn297 N-glycans de-sialylated with neuraminidase
notes: See m5
The molecule B8 showed a Ka in test [1] of 3.37e+07 M⁻¹.

B9: 3F6-hIgG1CHO-deSia (antibody)
heavy: not shown
light: DIVLTQSPDSLAVSLGERATINCRASESVEYSGASLMQWYQHKPGQPPKLLIYAASNRESGVPDRFSGSGSGTDFTLTISPVQAEDVAMYFCQQSRKVPSTFGGGTKLEIKRTVAAPSVFIFPPSDEQLKSGTASVVCLLNNFYPREAKVQWKVDNALQSGNSQESVTEQDSKDSTYSLSSTLTLSKADYEKHKVYACEVTHQGLSSPVTKSFNRGEC
modifications: Asn297 N-glycans de-sialylated with neuraminidase
notes: 3F6-hIgG1CHO after neuraminidase
B9: the Ka in [1] amounted to 5.5e+06 M⁻¹.

B10: 3F6-hIgG1HEK-KA (antibody, name in EU numbering)
heavy: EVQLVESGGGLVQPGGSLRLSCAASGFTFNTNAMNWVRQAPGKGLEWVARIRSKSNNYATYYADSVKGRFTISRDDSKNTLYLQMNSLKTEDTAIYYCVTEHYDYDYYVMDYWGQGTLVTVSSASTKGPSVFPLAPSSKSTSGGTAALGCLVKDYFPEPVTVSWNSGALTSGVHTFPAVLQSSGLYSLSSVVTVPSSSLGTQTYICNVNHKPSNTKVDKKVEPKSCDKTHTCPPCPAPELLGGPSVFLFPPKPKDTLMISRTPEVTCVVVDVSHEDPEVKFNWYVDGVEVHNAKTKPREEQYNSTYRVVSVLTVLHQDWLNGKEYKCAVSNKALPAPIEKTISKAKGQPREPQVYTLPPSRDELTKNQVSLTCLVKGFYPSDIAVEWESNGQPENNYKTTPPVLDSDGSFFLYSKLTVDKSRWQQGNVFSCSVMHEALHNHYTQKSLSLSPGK
light: DIVLTQSPDSLAVSLGERATINCRASESVEYSGASLMQWYQHKPGQPPKLLIYAASNRESGVPDRFSGSGSGTDFTLTISPVQAEDVAMYFCQQSRKVPSTFGGGTKLEIKRTVAAPSVFIFPPSDEQLKSGTASVVCLLNNFYPREAKVQWKVDNALQSGNSQESVTEQDSKDSTYSLSSTLTLSKADYEKHKVYACEVTHQGLSSPVTKSFNRGEC
notes: also called KA variant
For B10, the Ka in test [2] was 1.37e+06 M⁻¹; in test [3] it was 7.86e+08 M⁻¹; in [4] it was 1.81e+06 M⁻¹; in test [5], 1.23e+06 M⁻¹; in [6], 1.18e+06 M⁻¹; in [7], 1.4e+07 M⁻¹. The Ka in test [8] was found to be 1.51e+06 M⁻¹; in [9] it was 3.97e+08 M⁻¹; in test [10], 3.35e+06 M⁻¹; in test [11], 2.96e+06 M⁻¹; in test [12], 2.66e+08 M⁻¹; in test [13], 1.34e+06 M⁻¹.
